Data as given in patent US20070123465A1 (IPF PHARMACEUTICALS, published 2007).
Square brackets hold non-standard residues; d marks the D form. Ends that are not written are not given here. miniPEG = PEG spacer between peptide and cysteine; dTic = O=C(O)[C@H]1Cc2ccccc2CN1; NMeL = CN[C@@H](CC(C)C)C(=O)O

B1: VIR-574 (peptide)
peptide: LEAIPMSIPPEFLFGKPFVFKG
modifications: also: homodimer: C-termini linked to both amino groups of a C-terminal lysine core -K-G

Tests used:
[1] = target: T1, fusion peptide of HIV gp41 (HIV-1 strain NL4-3) (HIV-1 strain NL4-3); assay: cell-based or functional assay
[2] = target: T1, fusion peptide of HIV gp41 (HIV-1 …); assay: cell-based or functional assay; remark: listed apart in the source

| Binder | IC50 NL4-3 [nM], anti-HIV activity (infection of P4-CCR5 indicator cells, beta-galactosidase reporter) [1] [nM] | IC50, inhibition of HIV infection, HIV strain NL4-3 [2] [nM] |
| --- | --- | --- |
| [NMeL]EAIPCSIPPEFLFGKPFVF (also: homodimer via intermolecular disulfide between Cys6 of the two chains) [VIR-712] | 195 |  |
| LEAIPCGIP[dP]EV[dTic]FNKPFVF (also: homodimer via intermolecular disulfide Cys6-Cys6) [VIR-706] | 74 |  |
| LEKIPCSIP[dP]EVAFNKPFVF (also: homodimer via intermolecular disulfide Cys6-Cys6) [VIR-705] | 484 |  |
| [NMeL]EKIPCSIPPEFLFGKPFVF (also: homodimer via intermolecular disulfide between Cys6 of the two chains) [VIR-716] | 182 |  |
| B1 | 3080 |  |
| LEAIPMCIPPEFLFGKPFVF (also: homodimer via intermolecular disulfide between Cys7 of the two chains) [VIR-577] | 3270 |  |
| LEAIPMSIPPEFLFGKPFVF-{miniPEG-Cys-NH2} (also: homodimer disulfide bonded through the C-terminal cysteine) [VIR-673] | 664 |  |
| [NMeL]EDIPCSIPPEFLFGKPFVF (also: homodimer via intermolecular disulfide between Cys6 of the two chains) [VIR-717] | 635 |  |
| LEAIPCSIPPEFLFGKPFVF (not fully specified) [VIRIP (virus inhibiting peptide)] |  | 15000 |
